What follows are sequences tested on Escherichia coli TOP10 (assay: shrunken log2 fold change of peptide-encoding DNA abundance (4.5 h post-induction vs induction); higher = less antimicrobial activity (less host growth inhibition)). Settings: time post-induction: 4.5 h; library: site-saturation at positions 5, 18, 19, 20.
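Further: peptides expressed intracellularly from a pBAD plasmid library in pooled LB shake-flask culture, induced with 0.3% L-arabinose, DNA abundance read by NGS, three biological replicates, DESeq2 with apeglm shrinkage.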

Sequence	shrunken log2 fold change
RRIRSRPPRLPRPRPRPKGIPRP	-0.357
RRIRNRPPRLPRPRPRPTRDPRP	0.386
RRIRYRPPRLPRPRPRPQNDPRP	-1.63
RRIRFRPPRLPRPRPRPEISPRP	-0.048
RRIRCRPPRLPRPRPRPLVWPRP	0.207
RRIRYRPPRLPRPRPRPMTRPRP	-0.139
RRIRKRPPRLPRPRPRPFEIPRP	-0.201
RRIRTRPPRLPRPRPRPDTSPRP	-0.324
RRIRMRPPRLPRPRPRPKWIPRP	-0.124
RRIRDRPPRLPRPRPRPTCIPRP	0.0607
RRIRVRPPRLPRPRPRPTCAPRP	0.579
RRIRFRPPRLPRPRPRPSILPRP	-0.442
RRIRGRPPRLPRPRPRPKILPRP	0.229
RRIRNRPPRLPRPRPRPIAHPRP	-0.0737
RRIRARPPRLPRPRPRPKQMPRP	0.439
RRIRRRPPRLPRPRPRPCFAPRP	0.442
RRIRHRPPRLPRPRPRPKWQPRP	0.0671
RRIRPRPPRLPRPRPRPPFVPRP	0.139
RRIRARPPRLPRPRPRPHNYPRP	-0.303
RRIRQRPPRLPRPRPRPAWIPRP	-0.0396
RRIRHRPPRLPRPRPRPWPAPRP	0.292
RRIRHRPPRLPRPRPRPIDSPRP	-0.0116

Sequence	shrunken log2 fold change
RRIRMRPPRLPRPRPRPRQCPRP	0.594
RRIRFRPPRLPRPRPRPDSNPRP	-0.758
RRIRQRPPRLPRPRPRPSILPRP	-0.177
RRIRYRPPRLPRPRPRPAYNPRP	-0.638
RRIRERPPRLPRPRPRPCCLPRP	-0.57
RRIRDRPPRLPRPRPRPYRLPRP	-0.0389
RRIRERPPRLPRPRPRPTWYPRP	-0.217
RRIRPRPPRLPRPRPRPSCLPRP	-0.317
RRIRIRPPRLPRPRPRPTSQPRP	-0.283
RRIRGRPPRLPRPRPRPGHEPRP	0.202
RRIRARPPRLPRPRPRPVLSPRP	0.26
RRIRCRPPRLPRPRPRPNVMPRP	-0.337
RRIRERPPRLPRPRPRPFCPPRP	-0.149
RRIRARPPRLPRPRPRPMMMPRP	0.246
RRIRGRPPRLPRPRPRPGEDPRP	0.872
RRIRTRPPRLPRPRPRPHVSPRP	-0.287
RRIRFRPPRLPRPRPRPLASPRP	-0.0784
RRIRCRPPRLPRPRPRPVRRPRP	1.1
RRIRMRPPRLPRPRPRPWVKPRP	-0.00556
RRIRYRPPRLPRPRPRPMMLPRP	-0.00141
RRIRTRPPRLPRPRPRPIYCPRP	-0.233
RRIRCRPPRLPRPRPRPVWHPRP	0.127

Sequence	shrunken log2 fold change
RRIRERPPRLPRPRPRPPQVPRP	0.207
RRIRIRPPRLPRPRPRPKELPRP	-0.563
RRIRYRPPRLPRPRPRPFGPPRP	-0.0934
RRIRPRPPRLPRPRPRPGYHPRP	-0.506
RRIRCRPPRLPRPRPRPEKIPRP	0.117
RRIRQRPPRLPRPRPRPRLTPRP	0.178
RRIRERPPRLPRPRPRPCKTPRP	0.0029
RRIRIRPPRLPRPRPRPKITPRP	-0.83
RRIRYRPPRLPRPRPRPPGFPRP	0.184
RRIRRRPPRLPRPRPRPIYGPRP	-0.69
RRIRYRPPRLPRPRPRPVMQPRP	-0.315
RRIRFRPPRLPRPRPRPLTAPRP	-0.0807
RRIRMRPPRLPRPRPRPQRRPRP	0.799
RRIRERPPRLPRPRPRPGEHPRP	0.0251
RRIRNRPPRLPRPRPRPPCAPRP	-0.0473
RRIRWRPPRLPRPRPRPANGPRP	-0.186
RRIRVRPPRLPRPRPRPHTYPRP	-0.154
RRIRGRPPRLPRPRPRPHCVPRP	0.517
RRIRLRPPRLPRPRPRPKVHPRP	-0.106
RRIRLRPPRLPRPRPRPHNPPRP	-0.883
RRIRQRPPRLPRPRPRPTYNPRP	-0.591
RRIRFRPPRLPRPRPRPEYEPRP	-0.211

Sequence	shrunken log2 fold change
RRIRYRPPRLPRPRPRPWLSPRP	-0.205
RRIRRRPPRLPRPRPRPQSVPRP	-0.0146
RRIRQRPPRLPRPRPRPDGIPRP	0.087
RRIRTRPPRLPRPRPRPNVTPRP	-0.182
RRIRCRPPRLPRPRPRPCQTPRP	-0.7
RRIRVRPPRLPRPRPRPNYCPRP	-0.157
RRIRIRPPRLPRPRPRPYMRPRP	0.0163
RRIRKRPPRLPRPRPRPFLRPRP	0.13
RRIRPRPPRLPRPRPRPNNQPRP	-0.353
RRIRARPPRLPRPRPRPCIQPRP	0.151
RRIRRRPPRLPRPRPRPPPTPRP	1.12
RRIRPRPPRLPRPRPRPSCPPRP	-0.123
RRIRHRPPRLPRPRPRPCILPRP	-0.134
RRIRPRPPRLPRPRPRPPHYPRP	0.457
RRIRYRPPRLPRPRPRPFLPPRP	-0.557
RRIRNRPPRLPRPRPRPMELPRP	-0.182
RRIRERPPRLPRPRPRPECDPRP	0.12
RRIRWRPPRLPRPRPRPQKLPRP	0.0774
RRIRGRPPRLPRPRPRPVMQPRP	0.775
RRIRDRPPRLPRPRPRPPDHPRP	0.527
RRIRARPPRLPRPRPRPGGQPRP	0.262
RRIRQRPPRLPRPRPRPNDNPRP	-0.577

Sequence	shrunken log2 fold change
RRIRYRPPRLPRPRPRPCFLPRP	-1
RRIRGRPPRLPRPRPRPLLSPRP	1.04
RRIRGRPPRLPRPRPRPVHTPRP	0.174
RRIRCRPPRLPRPRPRPFFRPRP	-0.116
RRIRWRPPRLPRPRPRPQQQPRP	0.108
RRIRERPPRLPRPRPRPKYSPRP	-0.866
RRIRLRPPRLPRPRPRPMYVPRP	-0.199
RRIRNRPPRLPRPRPRPASHPRP	0.0783
RRIRNRPPRLPRPRPRPLLIPRP	0.589
RRIRIRPPRLPRPRPRPENHPRP	-0.143
RRIRSRPPRLPRPRPRPRDPPRP	0.623
RRIRERPPRLPRPRPRPRTHPRP	-0.574
RRIRCRPPRLPRPRPRPPRWPRP	1.16
RRIRSRPPRLPRPRPRPTYMPRP	-0.55
RRIRGRPPRLPRPRPRPGLEPRP	1.1
RRIRTRPPRLPRPRPRPVRLPRP	-0.0555
RRIRVRPPRLPRPRPRPYSVPRP	-0.265
RRIRERPPRLPRPRPRPRYYPRP	-0.206
RRIRMRPPRLPRPRPRPVTMPRP	0.116
RRIRTRPPRLPRPRPRPKAVPRP	0.26
RRIRERPPRLPRPRPRPLTTPRP	-0.395

Reference: the supplement of paper PMC9112550, “Optimization of the antimicrobial peptide Bac7 by deep mutational scanning” (BMC Biology, 2022)
